What was measured:
[1] = target: T1, TraI trans-esterase domain (TraI-TE) (Escherichia coli? (plasmid pKM101), UniProt D9Z5Q2 1-299); experiment: EMSA; apparent Kd, half-shift point; EMSA: 50 nM FITC-DNA, 0-1600 nM protein, 25 mM Hepes-NaOH pH 7.0, 300 mM NaCl, room temperature 15 min; 5% PAGE, 0.75x TBE, 4 C; details: protein: recombinant; tags: 10xHis with 3C site, cleaved off; label: 5' FITC; hairpin
T1 sequence: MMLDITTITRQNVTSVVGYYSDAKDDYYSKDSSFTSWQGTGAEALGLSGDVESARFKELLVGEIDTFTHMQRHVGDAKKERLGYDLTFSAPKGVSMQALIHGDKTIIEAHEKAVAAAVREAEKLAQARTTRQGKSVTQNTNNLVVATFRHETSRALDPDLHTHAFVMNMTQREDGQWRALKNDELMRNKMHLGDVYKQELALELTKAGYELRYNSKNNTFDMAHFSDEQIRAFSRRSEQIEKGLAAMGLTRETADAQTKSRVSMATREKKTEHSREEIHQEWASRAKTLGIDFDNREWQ

[2] = target: T2, TraI full-length (Escherichia coli? (plasmid pKM101), UniProt D9Z5Q2 3-1079); experiment: EMSA; complete shift at 200 nM and above; high shift from 50 nM; EMSA: 50 nM FITC-DNA, 0-1600 nM protein, 25 mM Hepes-NaOH pH 7.0, 300 mM NaCl, room temperature 15 min; 5% PAGE, 0.75x TBE, 4 C; details: protein: recombinant; tags: 10xHis with 3C site, cleaved off; label: 5' FITC; hairpin
T2 sequence: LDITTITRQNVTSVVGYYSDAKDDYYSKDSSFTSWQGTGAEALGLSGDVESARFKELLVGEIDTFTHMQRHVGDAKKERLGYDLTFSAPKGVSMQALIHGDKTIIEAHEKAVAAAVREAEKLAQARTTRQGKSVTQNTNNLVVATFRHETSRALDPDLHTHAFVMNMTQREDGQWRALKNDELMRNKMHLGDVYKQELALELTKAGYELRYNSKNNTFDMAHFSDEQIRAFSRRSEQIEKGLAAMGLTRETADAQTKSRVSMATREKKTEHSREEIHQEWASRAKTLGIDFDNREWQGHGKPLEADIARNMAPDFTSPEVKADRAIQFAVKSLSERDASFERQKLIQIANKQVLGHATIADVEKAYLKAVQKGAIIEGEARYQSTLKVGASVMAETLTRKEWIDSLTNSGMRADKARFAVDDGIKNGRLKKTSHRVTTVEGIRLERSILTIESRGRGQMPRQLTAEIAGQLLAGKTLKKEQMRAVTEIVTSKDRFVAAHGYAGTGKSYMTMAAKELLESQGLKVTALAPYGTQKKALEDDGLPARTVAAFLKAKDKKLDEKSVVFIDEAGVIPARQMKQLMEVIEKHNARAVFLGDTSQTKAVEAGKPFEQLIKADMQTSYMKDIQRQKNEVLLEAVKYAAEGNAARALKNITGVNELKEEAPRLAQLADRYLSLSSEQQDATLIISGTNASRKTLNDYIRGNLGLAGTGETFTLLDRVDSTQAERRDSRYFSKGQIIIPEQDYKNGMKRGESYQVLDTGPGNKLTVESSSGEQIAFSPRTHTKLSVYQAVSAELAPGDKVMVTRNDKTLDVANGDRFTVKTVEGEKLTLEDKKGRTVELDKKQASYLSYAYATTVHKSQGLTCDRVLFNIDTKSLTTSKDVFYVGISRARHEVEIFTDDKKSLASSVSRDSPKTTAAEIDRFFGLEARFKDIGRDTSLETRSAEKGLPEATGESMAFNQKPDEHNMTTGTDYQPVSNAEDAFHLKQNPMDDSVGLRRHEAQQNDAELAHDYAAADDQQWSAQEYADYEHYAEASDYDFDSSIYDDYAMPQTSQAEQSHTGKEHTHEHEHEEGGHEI

[3] = target: T1, TraI trans-esterase domain (TraI-TE); experiment: EMSA; over half bound at 200 nM; EMSA: 50 nM FITC-DNA, 0-1600 nM protein, 25 mM Hepes-NaOH pH 7.0, 300 mM NaCl, room temperature 15 min; 5% PAGE, 0.75x TBE, 4 C; details: protein: recombinant; tags: 10xHis with 3C site, cleaved off; label: 5' FITC; hairpin
[4] = target: T1, TraI trans-esterase domain (TraI-TE); experiment: X-ray crystallography 2.1 A; divalent cation modeled as Mn2+ (identity uncertain); 10 of 11 bases modeled; EMSA: 50 nM FITC-DNA, 0-1600 nM protein, 25 mM Hepes-NaOH pH 7.0, 300 mM NaCl, room temperature 15 min; 5% PAGE, 0.75x TBE, 4 C; details: protein: recombinant; tags: 10xHis with 3C site, cleaved off; U-turn in complex
[5] = target: T1, TraI trans-esterase domain (TraI-TE); experiment: EMSA; interaction only seen above 800 nM; EMSA: 50 nM FITC-DNA, 0-1600 nM protein, 25 mM Hepes-NaOH pH 7.0, 300 mM NaCl, room temperature 15 min; 5% PAGE, 0.75x TBE, 4 C; details: protein: recombinant; tags: 10xHis with 3C site, cleaved off; label: 5' FITC

B1: F-oriT57 (structured_DNA)
DNA: TGTGATAGCGTGATTTATCGCGCTGCGTTAGGTGTATAGCAGGTTAAGGGATAAAAA
Kd [1]: < 200 nM | apparent K (half saturation) [2]: < 200 nM

B2: F-oriT35 (structured_DNA)
DNA: TGTGATAGCGTGATTTATCGCGCTGCGTTAGGTGT
apparent K (half saturation) [3]: < 200 nM | apparent K (half saturation) [2]: < 200 nM

B3: oriT11 (ssDNA)
DNA: GCGTTAGGTGT
binding result [4]: binds

B4: F-Random57 (ssDNA)
DNA: TCCGCCATGCAGACGAGACCAGTCGGAGATTACCGAGCATTCTATCAGGTCGGCGAC
apparent K (half saturation) [5]: > 800 nM
